Measured values published in US20070231333A1, “ANTI-5T4 ANTIBODIES AND USES THEREOF” (Wyeth, priority 2006, published 2007).

How the values were obtained:
[1] = target: T1, cynomologous monkey 5T4 ectodomain Fc (Macaca fascicularis, UniProt Q4R8Y9, G135A/G313E/S41F); assay: Epitope mapping ELISA, 5T4 ectodomain Fc fusions; type: binding; design: key: +: binding; −: no binding; +/−: partial binding
T1 construct: cynomologous monkey 5T4 (amino acids 1-355); made in house; host or cells: COS-1 cells (transient)
T1 sequence (Q4R8Y9 35-355 S41F/G135A/G313E): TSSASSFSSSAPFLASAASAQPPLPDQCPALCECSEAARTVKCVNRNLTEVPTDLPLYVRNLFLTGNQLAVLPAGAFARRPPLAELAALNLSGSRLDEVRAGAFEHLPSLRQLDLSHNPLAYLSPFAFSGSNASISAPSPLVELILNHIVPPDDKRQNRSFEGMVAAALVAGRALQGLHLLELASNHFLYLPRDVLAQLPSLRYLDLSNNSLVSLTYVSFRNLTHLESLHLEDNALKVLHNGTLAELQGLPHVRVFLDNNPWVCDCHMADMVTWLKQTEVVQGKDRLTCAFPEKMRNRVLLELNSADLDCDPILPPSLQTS
Procedure: (§1) To identify the epitopes to which each of the A1, A2, A3, and H8 antibodies bind, ELISA assays were performed using (1) 5T4 ectodomain Fc constructs with deleted or mutated sequences, and (2) 5T4 chimera constructs transiently expressed in COS-1 cells. The ectodomain includes the amino-terminal region, two leucine-rich repeats, and the intervening hydrophilic region. Fusion proteins containing a 5T4 ectodomain and a Fc constant regions from human IgG1 were prepared using mouse 5T4 (amino acids 1-361), rat 5T4 (amino acids 1-361), cynomologous monkey 5T4 (amino acids 1-355), chimpanzee 5T4 (amino acids 1-355), and black-tailed marmoset (amino acids 1-355). The 5T4 chimera constructs are depicted in FIG. 5. The binding results are summarized in Table 5, which indicates specific binding, partial binding, or lack of binding, by each of the H8, A1, A2, and A3 antibodies.

mouse 5T4 ectodomain Fc = target: T2, mouse 5T4 ectodomain Fc (Mus musculus, UniProt Q9Z0L0); assay: Epitope mapping ELISA, 5T4 ectodomain Fc fusions; type: binding; design: key: +: binding; −: no binding; +/−: partial binding
T2 construct: mouse 5T4 (amino acids 1-361); made in house; host or cells: COS-1 cells (transient)
T2 sequence (Q9Z0L0 32-361): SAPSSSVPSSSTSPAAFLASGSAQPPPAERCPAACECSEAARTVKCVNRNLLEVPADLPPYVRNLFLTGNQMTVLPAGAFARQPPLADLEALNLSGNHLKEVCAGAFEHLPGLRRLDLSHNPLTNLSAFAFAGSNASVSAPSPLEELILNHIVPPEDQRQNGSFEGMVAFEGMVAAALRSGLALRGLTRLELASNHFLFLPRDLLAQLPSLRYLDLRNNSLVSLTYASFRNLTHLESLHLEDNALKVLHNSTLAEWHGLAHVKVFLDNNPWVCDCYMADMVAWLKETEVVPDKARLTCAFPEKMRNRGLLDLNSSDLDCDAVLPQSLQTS
Procedure: as §1

rat 5T4 ectodomain Fc = target: T3, rat 5T4 ectodomain Fc (Rattus norvegicus, UniProt Q5PQV5); assay: Epitope mapping ELISA, 5T4 ectodomain Fc fusions; type: binding; design: key: +: binding; −: no binding; +/−: partial binding
T3 construct: rat 5T4 (amino acids 1-361); made in house; host or cells: COS-1 cells (transient)
T3 sequence (Q5PQV5 32-361): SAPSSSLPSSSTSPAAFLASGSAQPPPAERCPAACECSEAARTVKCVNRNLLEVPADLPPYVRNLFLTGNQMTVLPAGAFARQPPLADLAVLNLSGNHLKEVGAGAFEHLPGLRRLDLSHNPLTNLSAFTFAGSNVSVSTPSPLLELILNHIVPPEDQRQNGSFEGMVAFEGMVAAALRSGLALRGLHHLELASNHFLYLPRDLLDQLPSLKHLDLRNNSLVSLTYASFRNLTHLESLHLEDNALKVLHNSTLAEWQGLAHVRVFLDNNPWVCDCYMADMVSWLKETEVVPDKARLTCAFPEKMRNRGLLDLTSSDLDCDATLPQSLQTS
Procedure: as §1

[2] = target: T4, human/mouse 173-361 5T4 chimera (Homo sapiens, UniProt Q13641, A205S/A340S/D319A/E189Q/E336D/G276S/G317D/H238Y/H301Y/I287V/I347V/INS199AFEGMV/L204R/L281W/P285A/P346A/P350Q/Q210R/Q282H/Q316P/R193G/R207L/R213T/R288K/S242R/T307A/V176E/V200A/V229L/V252A/V333G/Y224F/Y325F); assay: Epitope mapping ELISA, human/mouse 5T4 chimeras; type: binding; design: key: +: binding; −: no binding; +/−: partial binding
T4 construct: made in house; host or cells: COS-1 cells (transient)
T4 sequence (Q13641 with tags, fused parts or gaps V176E/E189Q/R193G/INS199AFEGMV/V200A/L204R/A205S/R207L/Q210R/R213T/Y224F/V229L/H238Y/S242R/V252A/G276S/L281W/Q282H/P285A/I287V/R288K/H301Y/T307A/Q316P/G317D/D319A/Y325F/V333G/E336D/A340S/P346A/I347V/P350Q limits assumed): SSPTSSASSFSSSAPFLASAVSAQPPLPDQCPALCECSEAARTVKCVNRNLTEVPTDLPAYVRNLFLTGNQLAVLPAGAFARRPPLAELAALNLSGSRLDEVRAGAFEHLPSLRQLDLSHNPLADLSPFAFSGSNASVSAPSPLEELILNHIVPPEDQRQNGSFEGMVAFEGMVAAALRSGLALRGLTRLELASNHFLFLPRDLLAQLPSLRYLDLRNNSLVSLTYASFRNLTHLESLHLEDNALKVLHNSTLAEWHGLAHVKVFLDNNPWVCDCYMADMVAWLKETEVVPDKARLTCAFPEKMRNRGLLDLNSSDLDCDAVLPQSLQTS
Procedure: as §1

[3] = target: T5, human 5T4 ectodomain Fc fusion protein (Homo sapiens, UniProt Q13641); assay: Competitive binding assay with biotinylated humanized H8 antibody; conditions: FIGS. 6A-6B
T5 construct: Human; 100; 1-355; made in house; host or cells: COS-1 cells (transient)
T5 sequence (Q13641 32-355): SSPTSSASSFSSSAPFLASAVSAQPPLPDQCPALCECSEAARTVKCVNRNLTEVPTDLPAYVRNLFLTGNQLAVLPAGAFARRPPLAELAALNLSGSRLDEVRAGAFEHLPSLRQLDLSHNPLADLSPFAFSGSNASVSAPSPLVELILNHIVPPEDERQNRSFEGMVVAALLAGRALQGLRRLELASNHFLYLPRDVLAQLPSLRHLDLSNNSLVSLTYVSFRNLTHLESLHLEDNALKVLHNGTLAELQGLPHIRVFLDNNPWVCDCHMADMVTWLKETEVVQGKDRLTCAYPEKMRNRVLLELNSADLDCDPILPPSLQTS
From the text: FIGS. 6A-6B show graphical results of competitive binding of humanized H8 and each of the indicated antibodies to human 5T4 ectodomain Fc fusion protein. HuH8, humanized H8 antibody; ChiA1, chimeric A1 antibody; ChiA1+C67F, chimeric A1 antibody bearing C67F mutation; ChiA2, chimeric A2 antibody; muA2, murine A2 antibody; ChiA3, chimeric A3 antibody; ChiA3+C91Y, chimeric A3 antibody bearing C91Y mutation, muA3, murine A3 antibody; No Ab, no antibody (control).
In addition to direct binding assays, competitive binding assays were performed using biotinylated humanized H8 antibody and each of the A1, A2, or A3 antibodies. Inhibition of binding to human 5T4 was not observed, supporting that each of A1, A2, and A3 binds to a 5T4 epitope that is distinct from that bound by the H8 antibody.

binding to 5T4 antigen construct [1]: + | binding to 5T4 antigen construct (mouse 5T4 ectodomain Fc): − | binding to 5T4 antigen construct (rat 5T4 ectodomain Fc): − | binding to 5T4 antigen construct [2]: − | inhibition of binding of biotinylated humanized H8 to human 5T4 [3]: not observed
B1: A2: murine anti-5T4 monoclonal antibody (IgG2b heavy chain); VH residues 19-135 of SEQ ID NO:6, VL residues 23-130 of SEQ ID NO:8 (antibody, listed as Mus musculus, V domains shown)
VH: MEWRIFLFILSGTAGVHSQVQLQQSRPELVKPGASVKMSCKASGYTFTDYVISWVKQRTGQGLEWIGEIYPGSNSIYYNEKFKGRATLTADKSSSTAYMQLSSLTSEDSAVYFCAMGGNYGFDYWGQGTTLTVSS
VL: MDFQVQIFSFLLISASVIMSRGQIVLTQSPAIMSASLGERVTLTCTASSSVNSNYLHWYQQKPGSSPKLWIYSTSNLASGVPARFSGSGSGTSYSLTISSMEAEDAATYYCHQYHRSPLTFGAGTKLELK
modifications: (1)..(18) leader sequence; (19)..(135) heavy chain variable region; (44)..(53) CDR1; (68)..(84) CDR2; (117)..(124) CDR3; (1)..(22) leader sequence; (23)..(130) light chain variable region; (46)..(56) CDR1; (73)..(79) CDR2; (112)..(120) CDR3
